# Data reported in patent publication US20260265379A1 (IMCHECK THERAPEUTICS, published 2026).
# B1: bsAb025 (bispecific antibody)
# heavy: QVQLVQSGVEVKKPGASVKVSCKASGYTFTNYYMYWVRQAPGQGLEWMGGINPSNGGTNFNEKFKNRVTLTTDSSTTTAYMELKSLQFDDTAVYYCARRDYRFDMGFDYWGQGTTVTVSSASTKGPSVFPLAPSSKSTSGGTAALGCLVKDYFPEPVTVSWNSGALTSGVHTFPAVLQSSGLYSLSSVVTVPSSSLGTQTYICNVNHKPSNTKVDKKVEPKSCDKTHTGGSSGSGSGSTGTSSSGTGTSAGTTGTSASTSGSGSGGGGGSGGGGSAGGEIVLTQSPATLSLSPGERATLSCRASKGVSTSGYSYLHWYQQKPGQAPRLLIYLASYLESGVPARFSGSGSGTDFTLTISSLEPEDFAVYYCQHSRDLPLTFGGGTKVEIKRTVAAPSVFIFPPSDEQLKSGTASVVCLLNNFYPREAKVQWKVDNALQSGNSQESVTEQDSKDSTYSLSSTLTLSKADYEKHKVYACEVTHQGLSSPVTKSFNRGECGGGGSGGGGSGGGGSGGGGSQVQLVQSGAEVKKPGASVKLSCKASGYIFTRYYMYWVKQRPGQGLEWIGEINPNNGGTKFNEKFKNRATLTVDKSISTAYMELSRLRSDDTAVYYCSREDDYDGTPFAMDYWGQGTLVTVSSASTKGPSVFPLAPSSKSTSGGTAALGCLVKDYFPEPVTVSWNSGALTSGVHTFPAVLQSSGLYSLSSVVTVPSSSLGTQTYICNVNHKPSNTKVDKRVEPKSCDKTHTCPPCPAPEFEGGPSVFLFPPKPKDTLMISRTPEVTCVVVDVSHEDPEVKFNWYVDGVEVHNAKTKPREEQYNSTYRVVSVLTVLHQDWLNGKEYKCKVSNKALPASIEKTISKAKGQPREPQVYTLPPSREEMTKNQVSLTCLVKGFYPSDIAVEWESNGQPENNYKTTPPVLDSDGSFFLYSKLTVDKSRWQQGNVFSCSVMHEALHNHYTQKSLSLSPG
# light: not shown
# notes: IgG anti-BTN3A, scFab anti-PD-1
# B2: bsAb039 (bispecific antibody)
# heavy (part 1 of 2): QVQLVQSGVEVKKPGASVKVSCKASGYTFTNYYMYWVRQAPGQGLEWMGGINPSNGGTNFNEKFKNRVTLTTDSSTTTAYMELKSLQFDDTAVYYCARRDYRFDMGFDYWGQGTTVTVSS
# heavy (part 2 of 2): GGGGSGGGGSGGGGSGGGGSDIQMTQSPSSLSASVGDRVTITCHASQNINVWLSWYQQKPGKAPKLLIYKASNLHTGVPSRFTGSGSGTDFTFTISSLQPEDIATYYCQQGQTYPYTFGQGTKLEIKGGGGSGGGGSGGGGSGGGGSQVQLVQSGAEVKKPGASVKLSCKASGYIFTRYYMYWVKQRPGQGLEWIGEINPNNGGTKFNEKFKNRATLTVDKSISTAYMELSRLRSDDTAVYYCSREDDYDGTPFAMDYWGQGTLVTVSS
# heavy: B2 heavy (part 2 of 2)
# light: EIVLTQSPATLSLSPGERATLSCRASKGVSTSGYSYLHWYQQKPGQAPRLLIYLASYLESGVPARFSGSGSGTDFTLTISSLEPEDFAVYYCQHSRDLPLTFGGGTKVEIKRTVAAPSVFIFPPSDEQLKSGTASVVCLLNNFYPREAKVQWKVDNALQSGNSQESVTEQDSKDSTYSLSSTLTLSKADYEKHKVYACEVTHQGLSSPVTKSFNRGEC
# notes: one Fab arm anti-PD-1, two scFv anti-BTN3A; not shown: IgG1 CH1-hinge-CH2-CH3; CH2-CH3 (Fc)
# B3: bsAb053 (bispecific antibody)
# heavy (part 1 of 2): B2 heavy (part 1 of 2)
# heavy (part 2 of 2): GGGGSGGGGSGGGGSGGGGSQVQLVQSGAEVKKPGASVKLSCKASGYIFTRYYMYWVKQRPGQGLEWIGEINPNNGGTKFNEKFKNRATLTVDKSISTAYMELSRLRSDDTAVYYCSREDDYDGTPFAMDYWGQGTLVTVSSGGGGSGGGGSGGGGSGGGGSDIQMTQSPSSLSASVGDRVTITCHASQNINVWLSWYQQKPGKAPKLLIYKASNLHTGVPSRFTGSGSGTDFTFTISSLQPEDIATYYCQQGQTYPYTFGQGTKLEIK
# heavy: B2 heavy (part 1 of 2)
# light: B2 light
# notes: IgG anti-PD-1, one scFv anti-BTN3A; not shown: IgG1 CH1-hinge-CH2-CH3
# B4: bsAb033 (bispecific antibody)
# heavy (part 1 of 2): QVQLVQSGAEVKKPGASVKLSCKASGYIFTRYYMYWVKQRPGQGLEWIGEINPNNGGTKFNEKFKNRATLTVDKSISTAYMELSRLRSDDTAVYYCSREDDYDGTPFAMDYWGQGTLVTVSS
# heavy (part 2 of 2): GGGGSGGGGSGGGGSGGGGSQVQLVQSGVEVKKPGASVKVSCKASGYTFTNYYMYWVRQAPGQGLEWMGGINPSNGGTNFNEKFKNRVTLTTDSSTTTAYMELKSLQFDDTAVYYCARRDYRFDMGFDYWGQGTTVTVSSGGGGSGGGGSGGGGSGGGGSEIVLTQSPATLSLSPGERATLSCRASKGVSTSGYSYLHWYQQKPGQAPRLLIYLASYLESGVPARFSGSGSGTDFTLTISSLEPEDFAVYYCQHSRDLPLTFGGGTKVEIK
# heavy: B4 heavy (part 1 of 2)
# light: not shown
# notes: IgG anti-BTN3A, one scFv anti-PD-1; not shown: IgG1 CH1-hinge-CH2-CH3
# B5: bsAb047 (bispecific antibody)
# heavy 1: EIVLTQSPATLSLSPGERATLSCRASKGVSTSGYSYLHWYQQKPGQAPRLLIYLASYLESGVPARFSGSGSGTDFTLTISSLEPEDFAVYYCQHSRDLPLTFGGGTKVEIKGGGGSGGGGSGGGGSGGGGSQVQLVQSGVEVKKPGASVKVSCKASGYTFTNYYMYWVRQAPGQGLEWMGGINPSNGGTNFNEKFKNRVTLTTDSSTTTAYMELKSLQFDDTAVYYCARRDYRFDMGFDYWGQGTTVTVSSGGGGSGGGGSGGGGSGGGGSQVQLVQSGAEVKKPGASVKLSCKASGYIFTRYYMYWVKQRPGQGLEWIGEINPNNGGTKFNEKFKNRATLTVDKSISTAYMELSRLRSDDTAVYYCSREDDYDGTPFAMDYWGQGTLVTVSS
# heavy 2: B4 heavy (part 1 of 2)
# light: not shown
# notes: as for B4
# B6: bsAb038 (bispecific antibody)
# heavy (part 1 of 2): B4 heavy (part 1 of 2)
# heavy (part 2 of 2): GGGGSGGGGSGGGGSGGGGSEIVLTQSPATLSLSPGERATLSCRASKGVSTSGYSYLHWYQQKPGQAPRLLIYLASYLESGVPARFSGSGSGTDFTLTISSLEPEDFAVYYCQHSRDLPLTFGGGTKVEIKGGGGSGGGGSGGGGSGGGGSQVQLVQSGVEVKKPGASVKVSCKASGYTFTNYYMYWVRQAPGQGLEWMGGINPSNGGTNFNEKFKNRVTLTTDSSTTTAYMELKSLQFDDTAVYYCARRDYRFDMGFDYWGQGTTVTVSS
# heavy: B4 heavy (part 1 of 2)
# light: not shown
# notes: as for B4
# B7: bsAb022 (bispecific antibody)
# heavy: QVQLVQSGVEVKKPGASVKVSCKASGYTFTNYYMYWVRQAPGQGLEWMGGINPSNGGTNFNEKFKNRVTLTTDSSTTTAYMELKSLQFDDTAVYYCARRDYRFDMGFDYWGQGTTVTVSSGGGGSGGGGSGGGGSGGGGSEIVLTQSPATLSLSPGERATLSCRASKGVSTSGYSYLHWYQQKPGQAPRLLIYLASYLESGVPARFSGSGSGTDFTLTISSLEPEDFAVYYCQHSRDLPLTFGGGTKVEIKGGGGSGGGGSGGGGSGGGGSQVQLVQSGAEVKKPGASVKLSCKASGYIFTRYYMYWVKQRPGQGLEWIGEINPNNGGTKFNEKFKNRATLTVDKSISTAYMELSRLRSDDTAVYYCSREDDYDGTPFAMDYWGQGTLVTVSSASTKGPSVFPLAPSSKSTSGGTAALGCLVKDYFPEPVTVSWNSGALTSGVHTFPAVLQSSGLYSLSSVVTVPSSSLGTQTYICNVNHKPSNTKVDKRVEPKSCDKTHTCPPCPAPEFEGGPSVFLFPPKPKDTLMISRTPEVTCVVVDVSHEDPEVKFNWYVDGVEVHNAKTKPREEQYNSTYRVVSVLTVLHQDWLNGKEYKCKVSNKALPASIEKTISKAKGQPREPQVYTLPPSREEMTKNQVSLTCLVKGFYPSDIAVEWESNGQPENNYKTTPPVLDSDGSFFLYSKLTVDKSRWQQGNVFSCSVMHEALHNHYTQKSLSLSPG
# light: not shown
# notes: IgG anti-BTN3A, scFv anti-PD-1
# What was measured:
# recombinant human BTN3A1 = target: T1, recombinant human BTN3A1 (human, UniProt O00481 30-254); assay: SPR
# T1 construct: Soluble form of the antigen used in SPR; also called rhBTN3A1; recombinant BTN3A1 protein
# T1 sequence (O00481 30-254 limits assumed): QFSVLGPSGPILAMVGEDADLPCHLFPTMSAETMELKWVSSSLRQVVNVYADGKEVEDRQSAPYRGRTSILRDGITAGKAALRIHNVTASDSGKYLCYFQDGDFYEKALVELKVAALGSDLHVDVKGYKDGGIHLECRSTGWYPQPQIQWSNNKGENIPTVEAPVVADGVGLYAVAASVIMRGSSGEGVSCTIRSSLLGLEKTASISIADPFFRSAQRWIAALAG
# Experimental: (§1) SPR measures the interactions between two or more biomolecules. In capture kinetics analysis, an antibody is immobilized onto a gold-plated prism. The immobilized antibody is referred to as the ligand. An injection of antigen, referred to as the analyte, is carried out, often as a concentration series. The captured analytes are removed from the sensor chip surface using a regenerating agent, for example a low pH or high ionic strength solution. If investigating binding to several analytes, the antibodies are recaptured from solution before each analyte titration series. The instrument records the changes in refractive indexes (due to the accumulation or depletion of mass) in time and plots the results as sensorgrams.
# (§2) Affinity measurements with respect to BTN3A, PD-1 and PD-L1 were performed by SPR technology, for instance in a Carterra LSA Platform instrument using a soluble form of the antigen as the analyte and the antibody as the ligand. Binding was also assessed through in cellulo binding assays, on cell lines (e.g. HEK293T cells) genetically modified to express the targets of interest or genetically modified to extinct target expression.
# (§3) The 69 produced bsAbs and control mAbs were also evaluated for their binding affinity to recombinant proteins by SPR assays. The equilibrium dissociation constant (KD) was then calculated for constructs showing detectable binding.
# recombinant human PD-1 = target: T2, recombinant human PD-1 (human, UniProt Q15116 25-167, limits assumed); assay: SPR
# T2 construct: Soluble antigen in SPR; also called rhPD-1
# T2 sequence (Q15116 25-167 limits assumed): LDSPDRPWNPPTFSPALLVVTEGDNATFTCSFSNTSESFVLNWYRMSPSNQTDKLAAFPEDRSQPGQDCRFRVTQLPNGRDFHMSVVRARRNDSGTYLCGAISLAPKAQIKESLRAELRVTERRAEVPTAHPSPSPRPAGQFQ
# Experimental: as §1, §2, §3
# [1] = target: T3, BTN3A1 at the surface of HEK-BTN3A1 cells (human, UniProt O00481 30-513); assay: flow cytometry, HEK-BTN3A1 cells
# T3 construct: HEK 293T BTN2A/BTN3A KO cells transduced with a BTN3A1 expressing vector
# T3 sequence (O00481 30-513 limits assumed): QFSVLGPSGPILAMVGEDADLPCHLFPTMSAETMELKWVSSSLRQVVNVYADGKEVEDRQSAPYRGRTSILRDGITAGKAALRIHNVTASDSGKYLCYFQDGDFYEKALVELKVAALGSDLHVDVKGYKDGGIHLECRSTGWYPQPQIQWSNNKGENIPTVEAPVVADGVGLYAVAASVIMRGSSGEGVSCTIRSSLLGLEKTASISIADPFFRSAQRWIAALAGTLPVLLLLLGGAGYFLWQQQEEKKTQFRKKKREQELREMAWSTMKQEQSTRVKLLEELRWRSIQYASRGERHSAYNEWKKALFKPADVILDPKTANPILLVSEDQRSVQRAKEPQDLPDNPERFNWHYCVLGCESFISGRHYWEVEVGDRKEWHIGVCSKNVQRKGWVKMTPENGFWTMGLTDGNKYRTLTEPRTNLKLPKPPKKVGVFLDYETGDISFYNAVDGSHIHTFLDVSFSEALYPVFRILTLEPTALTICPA
# [2] = target: T4, PD-1 at the surface of Jurkat-PD-1 cells (human, UniProt Q15116 25-288); assay: flow cytometry, Jurkat-PD-1 cells
# T4 construct: whole, on cells
# T4 sequence (Q15116 25-288): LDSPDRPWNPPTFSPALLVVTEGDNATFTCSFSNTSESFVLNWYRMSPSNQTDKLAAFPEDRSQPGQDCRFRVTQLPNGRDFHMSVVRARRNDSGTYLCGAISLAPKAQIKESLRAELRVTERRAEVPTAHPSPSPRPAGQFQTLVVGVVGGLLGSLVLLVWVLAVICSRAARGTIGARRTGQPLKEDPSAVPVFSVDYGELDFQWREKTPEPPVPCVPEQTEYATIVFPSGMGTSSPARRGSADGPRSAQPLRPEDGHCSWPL
# [3] = target: T4, PD-1 at the surface of Jurkat-PD-1 cells; assay: cell-based or functional assay
Binder,Kd (recombinant human BTN3A1) [nM],Kd (recombinant human PD-1) [nM],MFI at 10 nM [1] [MFI],MFI at 100 nM [1] [MFI],MFI at 10 nM [2] [MFI],MFI at 100 nM [2] [MFI],Jurkat-PD-1 activation at 10 nM [3],Jurkat-PD-1 activation at 100 nM [3]
B1,0.154,1.1,177000,669000,110000,358000,–,–
B2,0.187,2.1,1.14e+06,1.81e+06,294000,283000,–,–
B3,0.393,0.984,494000,1.24e+06,187000,424000,–,–
B4,0.067,0.786,584000,1.18e+06,194000,340000,1.6 fold-change to medium,6 fold-change to medium
B5,0.168,1.4,536000,866000,264000,364000,3.1 fold-change to medium,8.3 fold-change to medium
B6,0.071,1.9,588000,1.2e+06,160000,294000,1.5 fold-change to medium,3.5 fold-change to medium
B7,0.163,0.928,224000,992000,216000,367000,–,–
